Reference: the Immune Epitope Database (IEDB)

How the values were obtained:
[1] = target: HLA-A*30:01; test: IEDB peptide-MHC binding, purified MHC/competitive/radioactivity; filed as Kd, often an IC50 or EC50 that approximates it; ≥ and ≤ were set here for values at or beyond the usual limits of such assays; settings: source organism: Vaccinia virus WR
[2] = target: HLA-A*32:01; test: as above
[3] = target: HLA-B*08:01; test: as above; settings: source organism: Vaccinia virus WR
[4] = target: HLA-B*15:01; test: as above; settings: source organism: Vaccinia virus WR
[5] = target: HLA-B*15:03; test: as above
[6] = target: HLA-B*53:01; test: as above
[7] = target: HLA-B*07:02; test: as above
[8] = target: HLA-B*51:01; test: as above
[9] = target: HLA-B*44:02; test: as above
[10] = target: HLA-B*44:03; test: as above
[11] = target: HLA-A*02:01; test: as above
[12] = target: HLA-B*51:01; test: IEDB peptide-MHC binding, purified MHC/competitive/fluorescence; filed as Kd, often an IC50 or EC50 that approximates it; ≥ and ≤ were set here for values at or beyond the usual limits of such assays; settings: source organism: Salmonella enterica subsp. enterica serovar Typhi
[13] = target: HLA-B*18:01; test: IEDB peptide-MHC binding, purified MHC/competitive/radioactivity; filed as Kd, often an IC50 or EC50 that approximates it; ≥ and ≤ were set here for values at or beyond the usual limits of such assays
[14] = target: HLA-B*40:01; test: as above
[15] = target: HLA-B*40:02; test: as above
[16] = target: HLA-B*45:01; test: as above
[17] = target: HLA-B*15:01; test: IEDB peptide-MHC binding, purified MHC/competitive/fluorescence; filed as Kd, often an IC50 or EC50 that approximates it; ≥ and ≤ were set here for values at or beyond the usual limits of such assays; settings: source organism: Yersinia pestis Angola
[18] = target: HLA-A*24:03; test: IEDB peptide-MHC binding, purified MHC/direct/fluorescence; filed as Kd, often an IC50 or EC50 that approximates it; ≥ and ≤ were set here for values at or beyond the usual limits of such assays; settings: source organism: Giardia lamblia ATCC 50803
[19] = source organism: Vaccinia virus WR
[20] = source organism: Dengue virus 3 Sri Lanka/1266/2000
[21] = source organism: Dengue virus 2 Jamaica/1409/1983
[22] = source organism: Dengue virus 1 Singapore/S275/1990
[23] = source organism: Dengue virus 1 Brazil/97-11/1997
[24] = source organism: Mammarenavirus machupoense
[25] = source organism: Mammarenavirus lassaense
[26] = source organism: SARS coronavirus Tor2
[27] = source organism: Vaccinia virus Copenhagen
[28] = source organism: Dengue virus 4 Philippines/H241/1956

## LIRNKRLSL
[1]
  Kd: 696 nM
[2]; [19]
  Kd: ≥ 77800 nM
[3]
  Kd: 0.783 nM
[4]
  Kd: 455 nM
[5]; [19]
  Kd: 215 nM

## LPETMETLL
[6]; source organism: Dengue virus 3 Martinique/1243/1999
  Kd: 3580 nM

## LPMTVAAMGV
[7]; [20]
  Kd: 50.7 nM
[8]; [20]
  Kd: 633 nM

## LPVWLAYRV
[8]; [21]
  Kd: 130 nM
[6]; [21]
  Kd: 200 nM

## MEVTARWLW
[9]; [22]
  Kd: 2.1 nM
[10]; [22]
  Kd: 10.9 nM
[6]; [22]
  Kd: 804 nM

## MIEEVMRSRW
[6]; [23]
  Kd: 166 nM

## MIKIALSVA
[1]
  Kd: 1270 nM
[2]; [19]
  Kd: 4690 nM
[3]
  Kd: 535 nM
[4]
  Kd: 2780 nM
[5]; [19]
  Kd: 559 nM

## MKSLAMTAF
[5]; [19]
  Kd: 0.182 nM

## MTSYQYLII
[11]; source organism: Lassa virus Josiah
  Kd: 926 nM

## NPLWPFETV
[12]
  Kd: 229 nM

## QPMEHKYSW
[7]; [23]
  Kd: 141 nM
[6]; [23]
  Kd: 57.8 nM

## RAAGLQDCTML
[11]; source organism: Hepatitis C virus (isolate 1)
  Kd: ≥ 50000 nM

## RELLKSLSGL
[13]; [24]
  Kd: ≥ 70400 nM
[14]; [24]
  Kd: 877 nM
[15]; [24]
  Kd: 61.2 nM
[9]; [24]
  Kd: ≥ 22500 nM
[10]; [24]
  Kd: ≥ 23300 nM
[16]; [24]
  Kd: ≥ 70000 nM

## REVGDTSSDL
[13]; [25]
  Kd: ≥ 70400 nM
[14]; [25]
  Kd: 11500 nM
[15]; [25]
  Kd: 1360 nM
[9]; [25]
  Kd: ≥ 24500 nM
[10]; [25]
  Kd: ≥ 24800 nM
[16]; [25]
  Kd: ≥ 70000 nM

## RIYHEFLSL
[17]
  Kd: 97.5 nM

## RLNPEVSYF
[4]
  Kd: 0.304 nM
[5]; [19]
  Kd: 0.32 nM

## RLQPNQPPK
[1]
  Kd: 145 nM
[2]; [19]
  Kd: 1520 nM
[3]
  Kd: 1010 nM
[4]
  Kd: 934 nM
[5]; [19]
  Kd: 298 nM

## RSHIRKPPS
[1]
  Kd: 82.1 nM
[2]; [19]
  Kd: ≥ 77800 nM
[3]
  Kd: 3330 nM
[4]
  Kd: 11000 nM
[5]; [19]
  Kd: ≥ 23100 nM

## SEETGTLIV
[13]; [26]
  Kd: ≥ 50500 nM
[14]; [26]
  Kd: 1930 nM
[15]; [26]
  Kd: 7260 nM
[9]; [26]
  Kd: ≥ 50100 nM
[10]; [26]
  Kd: ≥ 27600 nM
[16]; [26]
  Kd: 121 nM

## SELVIGAVII
[13]; [26]
  Kd: ≥ 47200 nM
[14]; [26]
  Kd: 684 nM
[15]; [26]
  Kd: 1180 nM
[9]; [26]
  Kd: 1690 nM
[10]; [26]
  Kd: 827 nM
[16]; [26]
  Kd: 1900 nM

## SMWYIPNVF
[2]; [27]
  Kd: 5.1 nM
[5]; [27]
  Kd: 0.722 nM

## SMYPSYIEF
[5]; [19]
  Kd: 0.11 nM

## SPIEDIEREI
[7]; [28]
  Kd: 5450 nM
[8]; [28]
  Kd: ≥ 22000 nM
[6]; [28]
  Kd: 411 nM

## SSKVFLKAF
[1]
  Kd: 2410 nM
[2]; [19]
  Kd: 7020 nM
[3]
  Kd: 728 nM
[4]
  Kd: 1.7 nM
[5]; [19]
  Kd: 0.369 nM

## TEKSNVVRG
[13]; [26]
  Kd: ≥ 77500 nM
[14]; [26]
  Kd: ≥ 42700 nM
[15]; [26]
  Kd: ≥ 50300 nM
[9]; [26]
  Kd: 11900 nM
[10]; [26]
  Kd: ≥ 78200 nM
[16]; [26]
  Kd: ≥ 31800 nM

## TEQFLCYAL
[13]; [24]
  Kd: 21 nM
[14]; [24]
  Kd: 10600 nM
[15]; [24]
  Kd: 8.88 nM
[9]; [24]
  Kd: 143 nM
[10]; [24]
  Kd: 1500 nM
[16]; [24]
  Kd: 26.6 nM

## TVQKDGMYF
[18]
  Kd: 460 nM

## VGVNHSNTF
[5]; [19]
  Kd: 80.6 nM

## YECLYRNRDV
[13]; [26]
  Kd: ≥ 70500 nM
[14]; [26]
  Kd: 2410 nM
[15]; [26]
  Kd: 1720 nM
[9]; [26]
  Kd: 5550 nM
[10]; [26]
  Kd: 10300 nM
[16]; [26]
  Kd: 2510 nM

## YEQYIKWPWY
[13]; [26]
  Kd: 79.3 nM
[14]; [26]
  Kd: 1220 nM
[15]; [26]
  Kd: 7600 nM
[9]; [26]
  Kd: 41.6 nM
[10]; [26]
  Kd: 119 nM
[16]; [26]
  Kd: 518 nM

## YKFSCGLSL
[5]; [19]
  Kd: 0.132 nM
